This is an account of results in US20240052047A1 (Pfizer, published 2024).

One experiment concerns the target T1, Cynomolgus monkey IL27RA (cynomolgus monkey).
T1 construct: Soluble SPR analyte; also called Cyno IL27R; cyIL27R
T1 chain: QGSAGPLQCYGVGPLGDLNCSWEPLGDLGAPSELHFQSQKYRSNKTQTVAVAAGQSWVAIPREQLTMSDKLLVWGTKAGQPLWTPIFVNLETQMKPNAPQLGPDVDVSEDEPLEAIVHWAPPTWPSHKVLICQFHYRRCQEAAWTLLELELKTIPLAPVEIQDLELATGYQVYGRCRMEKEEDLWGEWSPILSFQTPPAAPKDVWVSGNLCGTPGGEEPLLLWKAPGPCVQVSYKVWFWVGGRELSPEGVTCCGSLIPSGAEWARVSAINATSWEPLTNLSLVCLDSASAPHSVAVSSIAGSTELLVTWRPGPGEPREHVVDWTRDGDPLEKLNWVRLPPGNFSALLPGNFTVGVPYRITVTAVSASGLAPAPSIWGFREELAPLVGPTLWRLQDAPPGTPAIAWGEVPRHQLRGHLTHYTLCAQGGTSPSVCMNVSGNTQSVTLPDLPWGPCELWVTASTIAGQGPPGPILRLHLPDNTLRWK
Briefly: SPR Biacore 8K+, 37 C; mAb-4894 captured by anti-Fab, antigen as analyte; 1:1 Langmuir fit. As for the experimental part: (§1) The crossreactivity of mAb-4894 to human and cynomolgus monkey antigens, gp130 (human—SEQ ID NO: 45, cynomolgus—SEQ ID No: 46) and IL27RA (human—SEQ ID NO: 41, cynomolgus—SEQ ID No: 42), was measured by surface plasmon resonance by anti-FAB capture of mAb-4894 (containing arms of anti-IL27RA-4880 EE and anti-gp130-4875 RR) on a biacore chip. Human or cynomolgus monkey IL27RA or gp130 was flowed over the chip and on and off rates were determined, and the affinity constants calculated.
(§2) Flow cell 1 for each channel was used as a reference flow cell. After antibody capture, three-fold dilution series of cytokines with concentrations ranging from 405 nM to 15 nM for huGP130 and cyGP130 and 45 nM to 1.67 nM for huIL27R and cyIL27R or HBS-EP+ buffer were injected over the sensor surface for 60 seconds at 50 μl/minute. The dissociation was monitored for 600 seconds and the surface was regenerated with 2 injections of 10 mM Glycine pH 1.7 at 30 μl/minute. The data was double referenced (Myszka, D., J. Mol. Recognit 1999; 279-284). Binding affinities and rate constants were determined for human and cyno GP130 and IL27R by fitting the resulting sensorgram data to a 1:1 Langmuir model in BIAcore Insight Evaluation software version 3.0.12.15655 (Cytiva).

The target in the next experiment is T2, Cynomolgus monkey gp130 (cynomolgus monkey, UniProt P40189 23-619 (human entry), limits assumed).
T2 construct: Soluble SPR analyte; also called Cyno GP130; cyGP130
T2 chain: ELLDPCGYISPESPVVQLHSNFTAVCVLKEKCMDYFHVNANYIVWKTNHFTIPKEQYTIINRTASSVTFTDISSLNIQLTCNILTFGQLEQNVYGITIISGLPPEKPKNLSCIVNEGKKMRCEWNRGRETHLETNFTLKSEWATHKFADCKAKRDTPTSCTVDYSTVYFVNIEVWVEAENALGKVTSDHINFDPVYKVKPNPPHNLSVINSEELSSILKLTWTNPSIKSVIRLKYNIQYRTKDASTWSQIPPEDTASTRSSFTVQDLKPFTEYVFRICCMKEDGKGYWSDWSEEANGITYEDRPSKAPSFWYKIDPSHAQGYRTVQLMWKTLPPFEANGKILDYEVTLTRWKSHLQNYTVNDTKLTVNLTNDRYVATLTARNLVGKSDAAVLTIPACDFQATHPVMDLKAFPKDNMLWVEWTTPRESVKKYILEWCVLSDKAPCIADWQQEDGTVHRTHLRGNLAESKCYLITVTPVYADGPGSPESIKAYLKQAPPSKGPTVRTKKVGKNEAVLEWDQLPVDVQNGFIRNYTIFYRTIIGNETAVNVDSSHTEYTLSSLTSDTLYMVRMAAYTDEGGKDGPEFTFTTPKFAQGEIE
The experiment is described as above. How it is done: as §1, §2

The next experiment deals with T3, Human IL27RA (human, UniProt Q6UWB1 33-516).
T3 construct: Soluble analyte in SPR and antigen in ELISA/screens; also called huIL27R
T3 sequence: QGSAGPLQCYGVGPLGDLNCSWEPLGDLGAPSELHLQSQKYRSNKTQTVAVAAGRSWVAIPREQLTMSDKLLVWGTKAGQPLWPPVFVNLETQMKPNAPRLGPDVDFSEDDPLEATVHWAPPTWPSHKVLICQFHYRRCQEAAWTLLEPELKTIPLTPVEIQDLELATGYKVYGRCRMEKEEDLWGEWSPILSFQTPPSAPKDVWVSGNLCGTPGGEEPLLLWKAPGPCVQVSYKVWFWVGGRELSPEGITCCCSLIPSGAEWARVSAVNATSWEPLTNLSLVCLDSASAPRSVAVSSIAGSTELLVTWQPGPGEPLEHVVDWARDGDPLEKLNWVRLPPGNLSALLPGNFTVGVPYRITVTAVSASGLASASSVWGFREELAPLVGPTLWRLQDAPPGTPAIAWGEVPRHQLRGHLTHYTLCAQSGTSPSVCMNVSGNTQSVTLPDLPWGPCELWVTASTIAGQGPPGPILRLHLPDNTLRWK
The description is as above. As for the experimental part:
as §1, §2

Experiment [1] has as its target human IL27 receptor (IL27RA/gp130 heterodimer) on human cells (human, UniProt Q6UWB1 33-636; P40189 23-918). Briefly: cell-based or functional assay.

The Kd is the free concentration of one partner at which half of the binding sites on the other are occupied at equilibrium, for simple one-to-one binding. In general, koff refers to a measure of how fast the partners let go of each other. One may read the kon as the rate constant with which the complex forms.

B1: mAb-4894 anti-IL27RA/gp130 bispecific antibody (bispecific antibody, human IgG1)
heavy 1: EVQLVESGGGLVQPGGSLRLSCAASGFTFEYFGLQWVRQAPGKGLEWIGYTSSGGNYEYYEETLKGRFTISRDNAKNSLYLQMNSLRAEDTAVYYCARTKTGDYWGQGTLVTVSSASTKGPSVFPLAPSSKSTSGGTAALGCLVKDYFPEPVTVSWNSGALTSGVHTFPAVLQSSGLYSLSSVVTVPSSSLGTQTYICNVNHKPSNTKVDKKVEPKSCEKTHTCPPCPAPEAAGAPSVFLFPPKPKDTLMISRTPEVTCVVVDVSHEDPEVKFNWYVDGVEVHNAKTKPREEQYNSTYRVVSVLTVLHQDWLNGKEYKCKVSNKALPAPIEKTISKAKGQPREPQVYTLPPSREEMTKNQVSLTCEVKGFYPSDIAVEWESNGQPENNYKTTPPVLDSDGSFFLYSKLTVDKSRWQQGNVFSCSVMHEALHNHYTQKSLSLSPGK
light 1: DIQMTQSPSSLSASVGDRVTITCRASQDIGNSLTWYQQKPGKAPKRVIFGATGLAAGVPSRFSGSGSGTDFTLTISSLQPEDFATYYCLQSKQYPYTFGQGTKLEIKRTVAAPSVFIFPPSDEQLKSGTASVVCLLNNFYPREAKVQWKVDNALQSGNSQESVTEQDSKDSTYSLSSTLTLSKADYEKHKVYACEVTHQGLSSPVTKSFNRGEC
heavy 2: QVQLVQSGAEVKKPGSSVKVSCKVSGGSISSYYWSWVRQAPGQGLEWIGRIYITGNTNYNPSLKDRVTMTVDTSTSTHYMELSSLRSEDTAVYYCAREGPKLGIFDYWGQGTLVTVSSASTKGPSVFPLAPSSKSTSGGTAALGCLVKDYFPEPVTVSWNSGALTSGVHTFPAVLQSSGLYSLSSVVTVPSSSLGTQTYICNVNHKPSNTKVDKKVEPKSCRKTHTCPPCPAPEAAGAPSVFLFPPKPKDTLMISRTPEVTCVVVDVSHEDPEVKFNWYVDGVEVHNAKTKPREEQYNSTYRVVSVLTVLHQDWLNGKEYKCKVSNKALPAPIEKTISKAKGQPREPQVYTLPPSREEMTKNQVSLTCLVKGFYPSDIAVEWESNGQPENNYKTTPPVLDSDGSFFLYSRLTVDKSRWQQGNVFSCSVMHEALHNHYTQKSLSLSPGK
light 2: DIQMTQSPSSLSASVGDRVTITCRASQSVSSSYLAWYQQKPGKAPKLLIYGTESRATGVPSRFSGSGSGTDFTLTISSLQPEDFATYYCQQYGGYPTFGGGTKVEIKRTVAAPSVFIFPPSDEQLKSGTASVVCLLNNFYPREAKVQWKVDNALQSGNSQESVTEQDSKDSTYSLSSTLTLSKADYEKHKVYACEVTHQGLSSPVTKSFNRGEC
notes: Human IgG1 EE/RR heterodimer with L234A, L235A, G237A (EU); also called GBT-IL27R-4894; GBT-IL-27R-4894
In the experiment with Cynomolgus monkey IL27RA, B1 yielded a Kd of 1.68 nM, a koff of 0.00195 s⁻¹ and a kon of 1.17e+06 M⁻¹ s⁻¹. In the experiment with Cynomolgus monkey gp130, this molecule had a Kd of 188 nM, a koff of 0.0403 s⁻¹ and a kon of 215000 M⁻¹ s⁻¹. In the experiment with Human IL27RA, this molecule had a Kd of 0.11 nM, a koff of 0.00011 s⁻¹ and a kon of 998000 M⁻¹ s⁻¹. The “Th17 Cells IL-17A IC50 (MSD immunoassay of supernatant)” value in experiment [1] came out at 0.0055 nM.
